According to the nanobody polyreactivity screen of Harvey et al. (2022):

Experiment: yeast display, Sf9 membrane polyspecificity reagent, FACS + sequencing; frameworks hold sequencing errors
Method in brief: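 Nanobodies came from a synthetic yeast display library in Saccharomyces cerevisiae BJ5465, induced with galactose for 36–48 hours and stained for 1 hour at 4 °C with 10% biotinylated, detergent-solubilized Sf9 membrane reagent. Cells were enriched on streptavidin microbeads and then FACS-sorted, with low and high (top ~1%) gates set on anti-HA fluorescence for expression and streptavidin fluorescence for reagent binding. Each polyreactivity label reflects the gate a clone came from. Genes were amplified by colony PCR, sequenced by MiSeq 2 × 250 and filtered by CDR length.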

Sequence | polyreactivity (PSR sort gate)
QVQLVESGGGLVHPGGRLRLSCAASGRIYKYYVMGWYRQAPGKEREFVAAISGRGGRTYYADSVKGRFTISRDNAKNTVYLQKNSLKPEDTAVYYCATERQDRGPLGYNYWGQGTQVTVSS | high polyreactivity
QVQLVESGGGLLQAGGSLRLSCAASGFTIQRYAMGWYRQAPGKERELVAAITSGGSTYYADSVKGRFTISRDNAKNTVYLQMNSLKPEDTAVYYCATRAVWSSWGRRYDSWGQGTQVTVSS | high polyreactivity
QVQLVESGGGLVQAGGSLRLSCAASGSIFVGNAMGWYRQAPGKERELVAAISRSGGRTYYADSVKRRFTISRDNAKITVYLQMNSLKPEHTAVYYCNAYGWEQLQMDSWGQGTQVTVSS | high polyreactivity
QLQLVETGGGLVQAGASLRLSCAASGSIFVPYAMGWYIQAPGKERELVAAISRGGDTNYADSVKGRFTISRDNAKNTVYLQMISLKPEDTAVYYCNRARHLYSRWHGGYYYWGQGTQVNVSS | low polyreactivity
QVQLVESGGGLVQAGGSLRLSCAASGFIFYRYAMGWYRQAPGKERELVASITKRGGSTRYADSVKGRFTISRDNAKNTVYLQMNSLKPEDTAVYYCAKVPYSTAFDYWGQGTQVTVSS | high polyreactivity
QVQLVESGGGLVQAGGSLRLSCAASGRIFKSDGMGWYREAPGKERELVATISSSGDSTYYADSVKGRFTISRDNAKNTVYLQMNSLKPDDTAVYHCAKRARYKFGYWGQGTQVTVSS | high polyreactivity
QVQLVESGGGLVQAGGSLRLSCGASGRIFGPYTMGWARQGPGKERELVARISRRGGSTYYADSVKGRFTISRDNAKNTVYLQMNSLKPEDTAVYYCARSQAVYDGWFAKFGYWGQGTQVTVSS | low polyreactivity
QVQLVESGGGLVQAGGSLRLSCAASGIIFIFYDMGWYRQAPGKERELVATITSGTNTYADSVKGRFTISRDNAKNTVYLQMNSLKPEDTAVYYCNAGAVHKKPARDYWGQGTQVTVSS | low polyreactivity
QVQLVESGGGLVQAGGSLRLSCAASGSIFGYYAMGWYSQAPGKERELVAAFTASGGSTYYADSVKGRFTISRDNAKNTVYFQMNSLKPEDTAVYYCAAGTHTDYGRYYYWGQGTQVTVSS | low polyreactivity
QVQLVESGGGLVQAGGSLRLSCASSGITFDKYAMGWYRQAPGKERELVAAINRSGGSTYYADSVKGRFTISRDNAKNTVYLQINSLKPEDTAVYYCAAVKPPDYYYWGQGTQVTVSS | high polyreactivity
QVQLVESGGGLVHAGGSLRLSCAASGITFSRNTMGWYRQAPGKERELVAAITLRGGGRTYYADSVKGRFTISRDNAKNTVYLQMISLKPEDTAVYYCAARYLVTFGHQQRYFYWGQGTHVTVSS | high polyreactivity
QVQLVESGGGLVQAGGSLRLSCAASGFIFKSYAMGWYRQAPGKETELVAAISRSGSSTYYADSVKGRFTISRDNAKNTVYLQMNSLKPEDTAVYYCAKKGYRFIHFGYDYWGQGTQVTVSS | high polyreactivity
QVLLVEAGGGLVQAGGSLRLSCAASGRIFRRYAMGWYRQAPGKERELVAAISSGGGSTYYADSVKGRFTISRDNAKNTVYLQMNSLKPEDTAVYYCNTDFYYDDVSQAHDYWGQGTQVTVSS | high polyreactivity
QVQLVESGGGLVQAGGSRRLSCAASGIIFTRNSMGWYRQAPGKERELVAAISRSGGRTYYADSVKGRFTISRDNAKNTVYLQMNSLKPEDTAVYYCYPRDKNLQAYDYWGQGNQVTVSS | high polyreactivity
QVQLVESGGGLVQAGGSLRLSCAASGSISGYYAMGWYRQAPGKERELVASIRYTGARTYYADSVKGRFTISRDNAKNTVYLQMNSLKPEDTAVYYCAADFKRDRVWGGDYWGQGTQVTVSS | low polyreactivity
QVQLVVSGGGLVQAGGSLRLSCAASGSTFYAYAMGWYRQAPGKERELVARIRWRGGRTYYADSVKGRFTISRDNAKNTVYLRMNSLKPEDTAVYYCNRGYYSYYGRYYYWGQGTQVTLSS | high polyreactivity
QVQLVESGGGLVQAGGRLRLSCAASGFTFNSYVMGWYRQAPGKERELVAAITRSGDRTYYADSVKGRFTISRDNAKNTVYLQMNSLKPEDTAVYYCAATWSINYYGWYYYWGQGTQVTVSS | high polyreactivity
QVQLVESGGGLVQAGGSLRLSCAASGSTFQANTMGWYRQAPGKERELVAAISIRGANTYYADSVKGRFTISRDNAKNTVYLQMNSLKPEDTAVYYCNAALRTRRGDYDYWGQGTQVTVSS | high polyreactivity
QVQLVESGGGLVQAGGSLRLSCSASGSIFSNAMGWYRQAPGKERELVAAITGRGGRTYYADSVKGRFTITRDNAKNSVYLQMNSLKPEDTAVYYCARDSPWSSRYRYRAFDYWGQGTQVTVSS | high polyreactivity
QVQLVESGGGLVQAGGSLRLSCAASGSILKSYAMGWYRQAPGKERELVAAITYRDGSTYYADSVKGRFTISRDNAKNTVYLQMNSLKPEDTAVYYCAAEPSWWNVFYPGYNYWGQGTQVTVSA | high polyreactivity
QVQLVESGGGLVQAGGSLRLSCAASGFIFRHNAMGWYRPAPGTEREFVAAISISGGSTYYADSVKGRFTISRDNAKNTVYLQMNSLKPEDTAVYYCNARSLGNTYLLYDYWGQGTQVTVSS | low polyreactivity
QVQLVESGGGLVQAGGRLRLICAASGSTFYYNALGWYRQAPGKERELVAGISRSGGSTYYADSVKGRFTISRDNAKNTVYLQMNSLKPEDTAVYYCAAKSYAYRWYDYWGQGTQVTVSS | high polyreactivity

Sequence | polyreactivity (PSR sort gate)
QVQLVESGGGLVQAGGSLRLSCAASASIFYQNAMGWYRQAPGKERELVAAISSAGSTYYADSVKGRFTISRDNAKNTVYLQMNSVKPEDTAVYYLLRGQGTQVTVSS | low polyreactivity
QVQLVETGAGLVQAGGSLRLSCGASGLTFARYAMGWYRQAPGKERELVAGIDSTGGTTYYADSVKGRFTISRDNAKNTVYLQMNSLKPVDTAVYYCYYWGLGTQVTVSS | low polyreactivity
QVQLVESGGGLVQAGGSLRLSCAASGLTFRAYVMGWYRQAPWKERELVAAISVSGGSTYYADSVKGRFTISRDNAKNKVYLQLNSLKPEDTAVYYFAAAYSSSKSSGNYYYWGLGTQVTVSS | high polyreactivity
QVQLVETRGGLVQAGGSLRLSCAASGSIFLQNAMGWYRQAPGKERELVAAITNGGSTNYADSVKGRFTISRDNAKNTVYLQMNSLKPEDTAVYYCAAYPLYTGSYDRGGYWGQGTQVTVSS | low polyreactivity
QVQLVESGGGLVQAGGSLRLSCAASGLTFQVNDMGWYRQAPGKERELVAGITFSGGSTYYPDSVKWRITISRDNAKTTVYLQMNSLKPEDTAVYYCADDTIIGYLYHNVVPTFDYWGQGTQVTVSS | low polyreactivity
QVQLVESGGGLVQAGGSLRLSCAASGSIFKPYAMGWYRQAPGKERELVAAINRGGTSTYYADSVKGRFTISRDNAKNTVYLQMISLKPEDTAVYYCAAPNRYSVPMYYWGQGTQVTVSS | low polyreactivity
QVQLVESGGGIVQAGGSLRLSCAASGGTFPWYTMVWYRQAPGKERELVATIRGRDGSTFYADSVKGRFTISRDNAKNTVYLQMNSLIPEVTAVYYCAAVGRRKDLRWGVYYRFDYWGQGTQVTVSS | low polyreactivity
QVQLVESGAGLVQAGGSLRLSCAASGFIFEINAMGWYRQAPGKERELVAVITNSGGSTYYADSVKGRFTISRDNAKYTVYLQMNSLKPEDTAVYYCAADAVHYTNDWYDYWGQGTQVTVSS | low polyreactivity
QVQLEESAGGLVQAGGSLRLSCAASGSIFAYYAMGWYRQAPGKERELVAVIRSGGSTYYADSVKGRFTISRDNAKNTVYFQMNSLKPEDTAVYYCAARSYRPTRGDYWGQGTQVTVSS | high polyreactivity
QVQLVESGGGLVQAGGSLRLSCAASGSIFVNNAMGWYRQAPGKERELVAAISSRGGSTYYADSVKGRFTISRDNAKNTVYLQMNSLKPEDTAVYYCAAEYDGPYYSFYPEQRYYWGQGTLVTVSS | low polyreactivity
QVQLVESGGGLVQAGGSLRLSCAASGRIFPRYAMGWYRQAPGKERELVATISSGGSTYYADSVKGRFTISRDNAKNTVYLQMNSLKPEDTAVYYCAARKRPYTVINGMDYCGQGTQVTVSS | low polyreactivity
QVQLVESVGGLVQAGGSHRLSCAASGSIFYYYDMGWYRQGPGKERELFAAINRGVGSTFYADSVKGRFTISRENAKNTVYLQMNSLKPEDTAVDYCSSRWYSRTRAYNYWGQGTQVTVSS | low polyreactivity
QVQLGESGGGLVQAGGSLRLSCAASGRIFWGYAMGWYRQAPGKERELVAAITRGTRTNYADSVKGRFTISRDNAKNTVYLQMNSLKPEDTAVYYCAADYRDSYLFYYWGQGTQVTVSS | high polyreactivity
QVQLVESGGGLVQAGGSLRLSCAASGRTFRYNTMGWYRQAPGKERELVAAITRSGGTTYYADSVKGRFTISRDNAKNTVYLQMNSLKPEDTSVYYCAAEGQAVRKSARDVFFEEFDYWGHGTQVTVSS | low polyreactivity
QVQLVESGGGLVQAGGSLRLSCAASGRTLRINAMGWYRQAPGKERELVAAISRSGGRTYYADSVKGRFTISRDNAKNTVYLQRNSLKPEDTAVYYCATGGVAYNYGWGQYYYWGQGTQVTVSS | high polyreactivity
QVQLVESGGGLVQAGGSLRLSCAASGSIFPPYAMGWYRQAPGKERELVAAIDWGGSSTYYADSVKGRFTISRDNAKNTVYLQMNSLKPEDTAVYYCAAEVVHGYYLYEYWGQGTQVTVSS | high polyreactivity
QVQLVVSGGGLVQAGGSLRLSCAASGYTFQGYAMGWYRQAPGKERELVAGISRSGGRTYYADSVKGRFTISRDNAKNTVYLQMNSLKPEDTAVYYCASTYPGAIRDYWGQGTQVTVSS | high polyreactivity
QVQLVESGGGLVQAGGSLRISCAASGSIFPHYAMGWYRQSPAKERELVAAISYSGGRTYYADSVKGRFTISRDNAKNTFYLQMNSLKPEDTAVYYCAKTERVLYHGDYWGQGTQVTVSS | low polyreactivity
QVHLVESGGGLVQAGGSLRLSCAASGRISHYNAMGWNRQAPGKERELVAAISSRGGSTYYADSVKGRFTISRDNAKNTVYLQMNSLKPEDTAVYFCAVRYWHWGKKITYDYWGQGTQVTVSS | high polyreactivity
QVQLVESGGGLVQAGGSLRLSCAASGRIFNWYAMGWYRKAPGKERELVAAISTDGSTYYADSVKGRFTISRDNAKNTVFLQMNSLKPEDTAVYYCAAVPGYTHLWGGPFDYWGQGTQVTVSS | low polyreactivity
KVQLVESGGGLVQAGGSLRLSCAASGRIFYSNVMGWYRQATGKERELVAAISGRTGGTYYADSVKGRFTISRDNAKNTVYLQMNSLKPEDTAVYYCAARFIYYYGSGPDDYWGQGTQVTVSS | low polyreactivity
